Experimental data: patent US20200087347 (published 2020)
[ ]: non-standard residue; d: D form. NMeK = CN[C@@H](CCCCN)C(=O)O

T1: integrin αvβ6 (human, UniProt P06756)
T1 chain 1: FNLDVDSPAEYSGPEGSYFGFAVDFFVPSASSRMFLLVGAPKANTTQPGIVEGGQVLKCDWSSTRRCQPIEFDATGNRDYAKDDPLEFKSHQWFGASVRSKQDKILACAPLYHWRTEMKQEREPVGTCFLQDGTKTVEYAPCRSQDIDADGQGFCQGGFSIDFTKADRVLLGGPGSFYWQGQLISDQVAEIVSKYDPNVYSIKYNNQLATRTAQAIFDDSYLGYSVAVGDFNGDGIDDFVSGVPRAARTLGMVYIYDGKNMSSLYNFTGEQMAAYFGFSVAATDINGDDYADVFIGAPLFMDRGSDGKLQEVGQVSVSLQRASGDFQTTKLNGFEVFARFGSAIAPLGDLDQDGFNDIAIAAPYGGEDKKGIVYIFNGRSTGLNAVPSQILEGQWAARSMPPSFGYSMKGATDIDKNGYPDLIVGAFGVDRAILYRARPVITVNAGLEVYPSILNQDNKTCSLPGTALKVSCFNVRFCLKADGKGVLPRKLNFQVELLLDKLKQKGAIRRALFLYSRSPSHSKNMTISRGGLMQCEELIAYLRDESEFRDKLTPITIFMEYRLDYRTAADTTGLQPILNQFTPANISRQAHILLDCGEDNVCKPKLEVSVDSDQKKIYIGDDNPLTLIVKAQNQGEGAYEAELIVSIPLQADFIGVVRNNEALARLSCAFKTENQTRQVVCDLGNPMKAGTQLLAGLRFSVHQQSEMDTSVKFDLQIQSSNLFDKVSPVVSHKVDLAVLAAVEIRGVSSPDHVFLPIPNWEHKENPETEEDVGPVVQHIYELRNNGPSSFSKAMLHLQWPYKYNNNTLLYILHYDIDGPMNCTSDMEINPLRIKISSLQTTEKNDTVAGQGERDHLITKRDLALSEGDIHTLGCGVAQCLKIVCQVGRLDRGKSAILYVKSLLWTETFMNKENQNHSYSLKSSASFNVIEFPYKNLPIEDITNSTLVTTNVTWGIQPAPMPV
T1 chain 2: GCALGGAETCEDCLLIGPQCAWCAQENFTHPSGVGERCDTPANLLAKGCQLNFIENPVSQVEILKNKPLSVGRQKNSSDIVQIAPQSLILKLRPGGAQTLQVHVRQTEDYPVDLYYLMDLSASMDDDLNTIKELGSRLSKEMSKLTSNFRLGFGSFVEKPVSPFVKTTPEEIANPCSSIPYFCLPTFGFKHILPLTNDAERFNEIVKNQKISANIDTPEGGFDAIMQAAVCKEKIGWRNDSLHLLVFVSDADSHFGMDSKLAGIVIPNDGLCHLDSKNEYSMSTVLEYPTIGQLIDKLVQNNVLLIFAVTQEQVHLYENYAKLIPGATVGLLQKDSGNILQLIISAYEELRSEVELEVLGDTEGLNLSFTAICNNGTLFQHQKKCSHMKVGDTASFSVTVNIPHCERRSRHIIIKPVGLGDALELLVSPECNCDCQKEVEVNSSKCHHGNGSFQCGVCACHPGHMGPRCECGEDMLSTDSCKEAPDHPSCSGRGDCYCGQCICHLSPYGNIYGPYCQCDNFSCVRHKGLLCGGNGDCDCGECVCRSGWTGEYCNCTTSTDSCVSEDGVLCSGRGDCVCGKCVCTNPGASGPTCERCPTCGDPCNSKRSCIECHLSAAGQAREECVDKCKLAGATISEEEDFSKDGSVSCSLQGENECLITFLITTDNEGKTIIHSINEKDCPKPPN

T2: integrin αvβ3 (human, UniProt P06756)
T2 chain 1: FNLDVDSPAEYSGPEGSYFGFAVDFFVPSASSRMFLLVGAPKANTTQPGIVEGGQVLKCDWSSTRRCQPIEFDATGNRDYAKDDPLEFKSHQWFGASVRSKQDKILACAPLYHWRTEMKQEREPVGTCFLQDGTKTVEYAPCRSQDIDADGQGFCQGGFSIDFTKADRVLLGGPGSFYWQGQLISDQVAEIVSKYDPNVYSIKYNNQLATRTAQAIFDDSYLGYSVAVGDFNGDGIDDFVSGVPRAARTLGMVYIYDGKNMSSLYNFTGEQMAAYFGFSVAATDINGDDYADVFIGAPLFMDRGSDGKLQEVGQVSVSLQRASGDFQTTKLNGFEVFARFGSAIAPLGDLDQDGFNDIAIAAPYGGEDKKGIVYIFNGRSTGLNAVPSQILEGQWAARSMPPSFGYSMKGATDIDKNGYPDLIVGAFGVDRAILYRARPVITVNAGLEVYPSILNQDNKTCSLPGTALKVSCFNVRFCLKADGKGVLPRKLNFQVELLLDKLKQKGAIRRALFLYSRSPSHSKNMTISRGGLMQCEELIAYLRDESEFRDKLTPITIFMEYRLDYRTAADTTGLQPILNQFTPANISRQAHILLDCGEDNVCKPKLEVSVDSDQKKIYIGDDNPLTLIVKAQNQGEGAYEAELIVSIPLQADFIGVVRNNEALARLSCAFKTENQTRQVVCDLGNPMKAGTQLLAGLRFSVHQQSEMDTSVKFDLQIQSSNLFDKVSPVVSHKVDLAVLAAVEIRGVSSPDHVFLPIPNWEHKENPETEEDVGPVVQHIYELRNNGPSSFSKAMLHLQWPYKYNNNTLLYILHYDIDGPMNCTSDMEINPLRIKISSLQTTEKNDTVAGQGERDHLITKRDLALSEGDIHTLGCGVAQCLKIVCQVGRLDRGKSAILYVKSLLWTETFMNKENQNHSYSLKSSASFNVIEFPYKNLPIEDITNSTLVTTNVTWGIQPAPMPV
T2 chain 2: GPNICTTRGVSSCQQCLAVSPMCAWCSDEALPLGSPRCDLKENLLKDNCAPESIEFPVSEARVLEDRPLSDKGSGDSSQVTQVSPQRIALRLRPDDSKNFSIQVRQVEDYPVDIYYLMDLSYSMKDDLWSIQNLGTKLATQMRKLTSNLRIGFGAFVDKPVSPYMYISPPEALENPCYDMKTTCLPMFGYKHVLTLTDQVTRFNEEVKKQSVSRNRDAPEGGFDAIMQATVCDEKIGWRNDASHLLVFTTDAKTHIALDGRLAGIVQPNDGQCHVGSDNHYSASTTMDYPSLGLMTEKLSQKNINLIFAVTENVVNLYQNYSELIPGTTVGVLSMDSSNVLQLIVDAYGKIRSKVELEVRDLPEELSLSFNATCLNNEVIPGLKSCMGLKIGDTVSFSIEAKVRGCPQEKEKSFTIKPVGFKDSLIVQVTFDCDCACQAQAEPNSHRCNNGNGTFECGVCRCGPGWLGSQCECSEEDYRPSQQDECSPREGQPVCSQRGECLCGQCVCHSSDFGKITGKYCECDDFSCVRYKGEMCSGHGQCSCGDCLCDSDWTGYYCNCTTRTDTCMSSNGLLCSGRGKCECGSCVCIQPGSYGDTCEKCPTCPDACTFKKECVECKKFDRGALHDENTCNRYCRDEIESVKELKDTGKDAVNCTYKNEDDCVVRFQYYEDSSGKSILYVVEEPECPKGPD

T3: integrin αvβ5 (human, UniProt P06756)
T3 chain 1: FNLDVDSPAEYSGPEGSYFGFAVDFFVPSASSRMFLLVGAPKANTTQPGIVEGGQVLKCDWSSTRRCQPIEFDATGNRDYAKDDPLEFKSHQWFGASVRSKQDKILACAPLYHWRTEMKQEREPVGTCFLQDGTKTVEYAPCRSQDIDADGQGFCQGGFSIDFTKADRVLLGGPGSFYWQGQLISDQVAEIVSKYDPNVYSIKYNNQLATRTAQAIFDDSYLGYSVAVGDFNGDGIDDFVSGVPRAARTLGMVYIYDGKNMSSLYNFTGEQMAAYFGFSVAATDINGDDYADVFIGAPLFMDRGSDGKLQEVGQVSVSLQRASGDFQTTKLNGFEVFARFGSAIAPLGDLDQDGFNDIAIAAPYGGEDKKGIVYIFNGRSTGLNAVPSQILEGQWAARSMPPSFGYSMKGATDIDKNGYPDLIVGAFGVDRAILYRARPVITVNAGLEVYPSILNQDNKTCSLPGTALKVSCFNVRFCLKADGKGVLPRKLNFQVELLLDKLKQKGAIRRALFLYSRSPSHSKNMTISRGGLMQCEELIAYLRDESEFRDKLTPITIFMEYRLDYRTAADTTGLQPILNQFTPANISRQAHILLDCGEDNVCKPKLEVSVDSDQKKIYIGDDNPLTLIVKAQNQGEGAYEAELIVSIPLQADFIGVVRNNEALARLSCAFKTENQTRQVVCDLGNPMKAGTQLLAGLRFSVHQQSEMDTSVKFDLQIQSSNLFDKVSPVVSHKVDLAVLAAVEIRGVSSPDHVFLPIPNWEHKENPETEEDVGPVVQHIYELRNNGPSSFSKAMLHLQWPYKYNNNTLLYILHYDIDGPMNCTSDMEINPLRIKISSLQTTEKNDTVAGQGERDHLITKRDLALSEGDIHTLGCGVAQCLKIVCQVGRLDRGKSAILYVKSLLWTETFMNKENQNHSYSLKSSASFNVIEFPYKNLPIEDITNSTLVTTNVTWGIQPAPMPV
T3 chain 2: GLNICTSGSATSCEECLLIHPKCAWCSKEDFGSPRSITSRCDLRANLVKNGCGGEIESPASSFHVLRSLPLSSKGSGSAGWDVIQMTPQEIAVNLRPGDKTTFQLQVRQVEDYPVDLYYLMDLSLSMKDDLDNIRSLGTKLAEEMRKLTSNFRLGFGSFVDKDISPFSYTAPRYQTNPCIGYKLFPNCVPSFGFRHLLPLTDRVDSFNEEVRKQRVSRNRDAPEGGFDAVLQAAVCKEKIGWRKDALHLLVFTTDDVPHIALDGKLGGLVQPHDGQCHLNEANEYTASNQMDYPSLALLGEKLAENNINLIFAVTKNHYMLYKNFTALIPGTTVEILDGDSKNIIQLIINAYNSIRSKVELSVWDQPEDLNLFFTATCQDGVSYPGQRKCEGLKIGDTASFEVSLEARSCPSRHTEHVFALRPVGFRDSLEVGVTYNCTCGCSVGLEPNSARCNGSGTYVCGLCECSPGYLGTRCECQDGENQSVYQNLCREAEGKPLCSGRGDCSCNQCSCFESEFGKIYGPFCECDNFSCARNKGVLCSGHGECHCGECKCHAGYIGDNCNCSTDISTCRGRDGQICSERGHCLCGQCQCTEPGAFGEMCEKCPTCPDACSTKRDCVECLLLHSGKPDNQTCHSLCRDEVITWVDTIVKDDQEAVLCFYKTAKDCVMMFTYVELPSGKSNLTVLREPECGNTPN

T4: integrin αvβ8 (human, UniProt P06756)
T4 chain 1: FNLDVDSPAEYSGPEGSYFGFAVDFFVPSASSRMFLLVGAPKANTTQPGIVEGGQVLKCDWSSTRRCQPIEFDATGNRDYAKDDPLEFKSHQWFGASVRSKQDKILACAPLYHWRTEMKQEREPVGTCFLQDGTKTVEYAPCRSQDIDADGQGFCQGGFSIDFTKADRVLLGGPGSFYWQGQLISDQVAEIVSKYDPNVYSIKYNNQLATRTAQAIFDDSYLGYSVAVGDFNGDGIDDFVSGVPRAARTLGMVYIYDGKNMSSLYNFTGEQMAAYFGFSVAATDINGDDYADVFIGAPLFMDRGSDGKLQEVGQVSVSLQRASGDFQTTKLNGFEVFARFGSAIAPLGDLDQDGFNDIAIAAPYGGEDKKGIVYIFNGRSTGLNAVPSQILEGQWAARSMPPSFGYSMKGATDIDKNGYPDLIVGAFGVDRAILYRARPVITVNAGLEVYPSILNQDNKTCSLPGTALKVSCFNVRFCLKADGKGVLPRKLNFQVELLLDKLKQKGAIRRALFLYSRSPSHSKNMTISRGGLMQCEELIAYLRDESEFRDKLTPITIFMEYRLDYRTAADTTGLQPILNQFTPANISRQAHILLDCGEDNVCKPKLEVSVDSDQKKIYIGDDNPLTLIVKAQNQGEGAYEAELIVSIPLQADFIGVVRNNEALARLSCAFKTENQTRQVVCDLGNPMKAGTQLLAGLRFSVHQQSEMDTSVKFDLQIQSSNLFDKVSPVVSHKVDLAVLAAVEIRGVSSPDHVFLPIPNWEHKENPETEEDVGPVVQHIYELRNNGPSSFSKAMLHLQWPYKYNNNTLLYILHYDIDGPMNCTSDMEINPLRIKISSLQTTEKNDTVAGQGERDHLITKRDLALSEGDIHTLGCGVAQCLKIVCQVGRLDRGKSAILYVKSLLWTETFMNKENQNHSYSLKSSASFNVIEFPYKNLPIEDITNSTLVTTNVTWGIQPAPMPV
T4 chain 2: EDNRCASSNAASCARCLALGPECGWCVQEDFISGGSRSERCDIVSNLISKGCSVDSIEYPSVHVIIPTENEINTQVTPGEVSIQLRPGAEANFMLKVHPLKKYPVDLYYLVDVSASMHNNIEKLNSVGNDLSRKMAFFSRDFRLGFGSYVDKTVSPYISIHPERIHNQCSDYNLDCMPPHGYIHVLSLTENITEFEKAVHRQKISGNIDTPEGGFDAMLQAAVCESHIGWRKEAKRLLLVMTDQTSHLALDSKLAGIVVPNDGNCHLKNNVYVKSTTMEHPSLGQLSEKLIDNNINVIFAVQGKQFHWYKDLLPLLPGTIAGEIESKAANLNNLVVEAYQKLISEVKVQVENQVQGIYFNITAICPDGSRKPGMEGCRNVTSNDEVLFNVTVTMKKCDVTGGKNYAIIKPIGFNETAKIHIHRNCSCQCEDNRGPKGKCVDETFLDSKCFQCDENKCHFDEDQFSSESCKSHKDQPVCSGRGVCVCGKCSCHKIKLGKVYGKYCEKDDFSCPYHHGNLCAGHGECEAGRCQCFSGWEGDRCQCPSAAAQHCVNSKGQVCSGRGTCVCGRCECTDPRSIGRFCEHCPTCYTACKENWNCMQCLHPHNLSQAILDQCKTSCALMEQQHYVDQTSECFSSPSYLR


How the values were obtained:
Experiment in all cases: competition
[1] = target: T1, integrin αvβ6
[2] = target: T2, integrin αvβ3
[3] = target: integrin αIIbβ3 (human, UniProt P08514)
[4] = target: T3, integrin αvβ5
[5] = target: integrin α5β1 (human, UniProt P08648)
[6] = target: T4, integrin αvβ8

Sequence of integrin α5β1 (P08648 42-1049, chain 1 of 2): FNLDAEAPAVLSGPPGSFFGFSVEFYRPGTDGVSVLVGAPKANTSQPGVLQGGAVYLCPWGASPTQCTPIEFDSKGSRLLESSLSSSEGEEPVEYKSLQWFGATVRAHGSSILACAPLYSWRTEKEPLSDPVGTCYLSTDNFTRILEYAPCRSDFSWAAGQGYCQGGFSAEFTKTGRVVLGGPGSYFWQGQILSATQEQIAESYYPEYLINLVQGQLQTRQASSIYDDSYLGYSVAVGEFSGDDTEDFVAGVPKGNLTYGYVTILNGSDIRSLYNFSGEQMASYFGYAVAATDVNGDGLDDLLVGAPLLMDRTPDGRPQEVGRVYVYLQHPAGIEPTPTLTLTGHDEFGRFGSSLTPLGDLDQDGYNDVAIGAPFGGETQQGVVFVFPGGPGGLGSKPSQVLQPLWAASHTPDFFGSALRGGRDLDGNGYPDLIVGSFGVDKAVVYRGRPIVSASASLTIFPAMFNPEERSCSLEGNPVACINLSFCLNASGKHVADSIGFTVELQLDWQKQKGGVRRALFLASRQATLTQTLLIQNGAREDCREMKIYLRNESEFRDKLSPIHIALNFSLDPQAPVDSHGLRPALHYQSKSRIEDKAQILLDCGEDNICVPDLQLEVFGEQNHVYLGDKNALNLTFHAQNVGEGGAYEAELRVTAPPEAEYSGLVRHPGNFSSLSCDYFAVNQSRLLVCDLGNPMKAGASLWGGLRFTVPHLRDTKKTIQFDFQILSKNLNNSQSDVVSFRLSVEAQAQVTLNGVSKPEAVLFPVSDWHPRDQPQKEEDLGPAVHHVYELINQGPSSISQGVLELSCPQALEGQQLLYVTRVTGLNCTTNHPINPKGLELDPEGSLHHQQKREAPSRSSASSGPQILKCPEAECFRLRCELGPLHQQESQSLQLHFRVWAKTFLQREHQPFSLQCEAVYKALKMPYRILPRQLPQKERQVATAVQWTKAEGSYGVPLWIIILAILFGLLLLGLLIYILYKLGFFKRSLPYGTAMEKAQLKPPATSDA
Sequence of integrin α5β1 (chain, as listed by the source, chain 2 of 2): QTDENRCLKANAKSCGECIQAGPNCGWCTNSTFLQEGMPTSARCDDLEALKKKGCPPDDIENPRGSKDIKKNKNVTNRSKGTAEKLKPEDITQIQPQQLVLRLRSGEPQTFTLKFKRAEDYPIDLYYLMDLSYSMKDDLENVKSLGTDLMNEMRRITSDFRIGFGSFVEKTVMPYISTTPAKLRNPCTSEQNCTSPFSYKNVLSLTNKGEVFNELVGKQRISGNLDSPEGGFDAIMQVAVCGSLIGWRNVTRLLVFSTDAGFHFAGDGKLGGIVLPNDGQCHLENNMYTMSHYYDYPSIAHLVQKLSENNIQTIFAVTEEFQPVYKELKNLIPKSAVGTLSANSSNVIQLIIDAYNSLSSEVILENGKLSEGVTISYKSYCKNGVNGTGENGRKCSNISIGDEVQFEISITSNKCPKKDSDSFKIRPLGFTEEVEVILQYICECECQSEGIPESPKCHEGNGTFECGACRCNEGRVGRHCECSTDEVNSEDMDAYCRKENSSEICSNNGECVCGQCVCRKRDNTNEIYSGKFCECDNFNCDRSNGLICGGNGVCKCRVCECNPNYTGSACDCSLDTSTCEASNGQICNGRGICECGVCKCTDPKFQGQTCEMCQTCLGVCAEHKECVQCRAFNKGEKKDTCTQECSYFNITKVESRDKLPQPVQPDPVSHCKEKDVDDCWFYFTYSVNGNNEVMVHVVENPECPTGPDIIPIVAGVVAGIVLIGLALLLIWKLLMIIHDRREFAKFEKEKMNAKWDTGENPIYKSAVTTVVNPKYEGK

Row | Binder | IC50 [1] | IC50 [2] | IC50 [3] | IC50 [4] | IC50 [5] | IC50 [6]
1 | cyclo(RGDL[dP][NMeK]GL) (SMILES CC(C)C[C@@H]1NC(=O)CNC(=O)[C@H](CCCCN)N(C)C(=O)[C@H]2CCCN2C(=O)[C@H](CC(C)C)NC(=O)[C@H](CC(=O)O)NC(=O)CNC(=O)[C@H](CCCNC(=N)N)NC1=O) [Compound 8] | 201 nM | > 1000 nM | > 1000 nM | > 1000 nM | > 1000 nM | 6.5 nM
2 | cyclo(RGDL[dP][NMeK](Ac)GL) [Compound 9] | 201 nM | 423 nM | > 1000 nM | > 1000 nM | > 1000 nM | 6 nM
